{
  "source": "patent US20240389562",
  "assay_in_all_cases": "cell_activity",
  "key": {"[1]": {"tested_on": "XTN TALEN 1 right monomer", "conditions": "Cel-1 assay, value for the pair"}, "[2]": {"tested_on": "XTN TALEN 3 right monomer", "conditions": "Cel-1 assay, value for the pair"}, "XTN TALEN 1 left monomer": {"tested_on": "XTN TALEN 1 left monomer", "conditions": "Cel-1 assay, value for the pair"}, "XTN TALEN 3 left monomer": {"tested_on": "XTN TALEN 3 left monomer", "conditions": "Cel-1 assay, value for the pair"}, "XTN TALEN 2 left monomer": {"tested_on": "XTN TALEN 2 left monomer", "conditions": "Cel-1 assay, value for the pair; most active"}, "[3]": {"tested_on": "XTN TALEN 2 right monomer", "conditions": "Cel-1 assay, value for the pair; most active"}},
  "data": [
    {"sequence": "AGTGCAGGGAGCCACA (double strand) [TALEN 1 right half-site]", "values": [
      {"measurement": "activity", "setting": "[1]", "result": 5, "unit": "%"}
    ]},
    {"sequence": "GTCATTGAGCAAATGCA (double strand) [TALEN 3 right half-site]", "values": [
      {"measurement": "activity", "setting": "[2]", "result": 3, "unit": "%"}
    ]},
    {"sequence": "TATGCGGACCTTTATCTA (double strand) [TALEN 1 left half-site]", "values": [
      {"measurement": "activity", "setting": "XTN TALEN 1 left monomer", "result": 5, "unit": "%"}
    ]},
    {"sequence": "TCTGCCAACCTCACAT (double strand) [TALEN 3 left half-site]", "values": [
      {"measurement": "activity", "setting": "XTN TALEN 3 left monomer", "result": 3, "unit": "%"}
    ]},
    {"sequence": "TGCAGTATGCGGACCTT (double strand) [TALEN 2 left half-site]", "values": [
      {"measurement": "activity", "setting": "XTN TALEN 2 left monomer", "result": 9, "unit": "%"}
    ]},
    {"sequence": "TTCCTAAGTGCAGGGA (double strand) [TALEN 2 right half-site]", "values": [
      {"measurement": "activity", "setting": "[3]", "result": 9, "unit": "%"}
    ]}
  ]
}
